To fix the notation:
B1: F7.44.20-H5 (scFv, not shown: small tags and cut ends)
scFv: EVQLVQSGAEVKKPGASVKVSCKASGYTFTDYNMDWVRQAPGQGLEWMGDINPSTGGTIYNQKFQGRVTMTEDKSTSTVYMELSSLRSEDTAVYYCARRRIGTGYFDVWGQGTTVTVSSGGGGSGGGGSGGGGSEIVLTQSPDFQSVTPKEKVTITCSASSSVISSYLSWYQQKPDQSPKLLIYRTSNLASGVPSRFSGSGSGTDFTLTINSLEAEDAATYYCHQWSSFPYTFGGGTKVEIK
notes: also called S009-F7.44.20 humanized antibody VH1a + VL1
B2: F7.44.20-H9 (scFv, not shown: small tags and cut ends)
scFv: B1 scFv with Q65N, T76A
notes: also called S009-F7.44.20 humanized antibody VH2 + VL1
B3: F7.44.20-H16 (scFv, not shown: small tags and cut ends)
scFv: EVQLVQSGAEVKKPGASVKVSCKASGYTFTDYNMDWVRQAPGQGLEWMGDINPSTGGTIYNQKFSGRVTMTEDKSASTVYMELSSLRSEDTAVYYCARRRIGTGYFDVWGQGTTVTVSSGGGGSGGGGSGGGGSEIVLTQSPATLSLSPGERATLSCSASSSVISSYLSWYQQKPGSSPRLLIYRTSNLASGIPARFSGSGSGTDYTLTISSLEPEDFAVYYCHQWSSFPYTFGGGTKVEIK
notes: also called S009-F7.44.20 humanized antibody VH2a + VL4
B4: F7.33.24-H1 (scFv, not shown: small tags and cut ends)
scFv: EVQLVQSGAEVKKPGASVKVSCKASGYTFTSYWMHWVRQAPGQRLEWMGNVNPSNGGSNYNEKFKNRVTITVDKSASTAYMELSSLRSEDTAVYYCAPHYIGSRPGFAYWGQGTLVTVSSGGGGSGGGGSGGGGSDIVMTQSPDSLAVSLGERATINCKASQNVGTNIAWYQQKPGQSPKALIYSASYRYSGVPDRFSGSGSGTDFTLTISSLQAEDVAVYYCQQYNSYPLTFGGGTKVEIK
notes: also called S009-F7.33.24 humanized antibody VH1 + VL1
B5: F7.33.24-H7 (scFv, not shown: small tags and cut ends)
scFv: B4 scFv with R44G
notes: also called S009-F7.33.24 humanized antibody VH2 + VL1
B6: F7.33.24-H4 (scFv, not shown: small tags and cut ends)
scFv: B4 scFv with N55S
notes: also called S009-F7.33.24 humanized antibody VH1a + VL1
B7: Tab110 (scFv, not shown: small tags and cut ends)
scFv: QQQLEESGGGLVKPEGSLTLTCKASGFDLGFYFYACWVRQAPGKGLEWIACIYTAGSGSTYYASWAKGRFTISKASSTTVTLQMTSLAAADTATYFCARSTANTRSTYYLNLWGPGTLVTVSSGGGGSGGGGSGGGGSDVVMTQTPASVSEPVGGTVTIKCQASQRISSYLSWYQQKPGQRPKLLIFGASTLASGVPSRFKGSGSGTEYTLTISDLECADAATYYCQSYAYFDSNNWHAFGGGTEVVV
notes: also called YP218 VH-(G4S)3-VL-his antibody; positive control

Substitutions are numbered along the chain they refer to. Numbers in names are those of the source.

T1 sequence (Q13421 other isoform, or with tags, fused parts or gaps): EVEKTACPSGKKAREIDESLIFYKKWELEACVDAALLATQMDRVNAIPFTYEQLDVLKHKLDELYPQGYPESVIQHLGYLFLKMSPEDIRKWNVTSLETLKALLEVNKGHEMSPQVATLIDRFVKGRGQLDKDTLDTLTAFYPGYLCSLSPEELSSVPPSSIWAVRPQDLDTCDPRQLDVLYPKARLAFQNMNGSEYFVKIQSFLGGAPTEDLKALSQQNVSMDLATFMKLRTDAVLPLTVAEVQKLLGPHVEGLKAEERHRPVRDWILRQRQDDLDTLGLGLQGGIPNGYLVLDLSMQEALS
T2 sequence (Q13421 other isoform, or with tags, fused parts or gaps): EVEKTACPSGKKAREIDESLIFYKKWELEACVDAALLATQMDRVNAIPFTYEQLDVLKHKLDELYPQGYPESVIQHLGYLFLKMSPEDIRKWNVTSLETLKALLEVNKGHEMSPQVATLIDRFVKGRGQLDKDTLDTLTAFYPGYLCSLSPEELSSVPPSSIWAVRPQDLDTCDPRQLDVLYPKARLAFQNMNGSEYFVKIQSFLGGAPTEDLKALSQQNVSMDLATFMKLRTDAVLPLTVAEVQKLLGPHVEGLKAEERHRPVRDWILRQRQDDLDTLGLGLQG

One assay has as its target T1, human MSLN on OVCAR3 tumor cells (human, UniProt Q13421 296-598).
T1 construct: whole, on cells; also called human MSLN protein
Briefly: FACS, OVCAR3 cells. A general note: Flow cytometry measures light scatter and fluorescence of single cells or particles in a stream.
B1: the EC50 was 1 nM and the Maximum_MFI came to 1960 MFI.
The matching figures for B2: 1.61 nM and 2220 MFI.
The matching figures for B3: 1.66 nM and 1650 MFI.

Another assay concerns the target T2, human MSLN-hFc recombinant protein (human, UniProt Q13421 296-580).
T2 construct: Captured by an anti-human IgG antibody on the chip; also called human MSLN protein; Acro MSN-H5253
Briefly: SPR (Biacore 8K), MSLN-hFc captured, antibody injected. On the technique in general: Surface plasmon resonance follows binding to a sensor surface in real time, without labels.
As for B1, the Kd was 0.709 nM, the off-rate constant (koff) is 0.000313 s⁻¹ and the on-rate (kon) was 442000 M⁻¹ s⁻¹.
The corresponding values for B2 are 0.464 nM, 0.000208 s⁻¹ and 449000 M⁻¹ s⁻¹.
The matching figures for B3: 1.85 nM, 0.000679 s⁻¹ and 367000 M⁻¹ s⁻¹.

For another assay, the target named is T3, monkey MSLN on HEK293T-monkey MSLN recombinant cells (monkey).
T3 construct: Full-length precursor as transfected; processing on the cell is not described; also called HEK293-monkey MSLN
T3 chain: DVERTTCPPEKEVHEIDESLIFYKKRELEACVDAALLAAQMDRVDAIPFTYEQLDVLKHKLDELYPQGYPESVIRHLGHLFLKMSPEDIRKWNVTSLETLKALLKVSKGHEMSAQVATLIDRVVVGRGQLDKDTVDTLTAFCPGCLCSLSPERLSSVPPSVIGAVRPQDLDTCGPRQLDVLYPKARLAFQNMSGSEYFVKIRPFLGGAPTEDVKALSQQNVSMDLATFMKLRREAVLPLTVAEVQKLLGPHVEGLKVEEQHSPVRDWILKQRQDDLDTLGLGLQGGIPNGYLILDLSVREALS
The experiment in a line: FACS, HEK293T-monkey MSLN cells.
On to B4, for which the EC50 is 4.16 nM and the Maximum_MFI stood at 9050 MFI.
The corresponding values for B5 are 5 nM and 8820 MFI.
Turning to B6, the EC50 was determined as 5.23 nM and the Maximum_MFI came out at 9380 MFI.

For the next assay, the target named is T1, human MSLN on OVCAR3 tumor cells. The experiment in a line: FACS, OVCAR3 cells. The source holds these as a separate data set.
In turn, B4 returned an EC50 of 1.05 nM and a Maximum_MFI of 2180 MFI.
As for B5, the midpoint of the response, the EC50, lay at 2 nM and the Maximum_MFI was determined as 2190 MFI.
The matching figures for B6: 3.04 nM and 2230 MFI.

For the next assay, the target named is T4, human MSLN-R3 on HEK293T-hMSLN-R3 recombinant cells (human, UniProt Q13421 487-606).
T4 construct: the C-terminal limit is uncertain; also called human MSLN-R3 membrane protein
T4 sequence (Q13421 495-614): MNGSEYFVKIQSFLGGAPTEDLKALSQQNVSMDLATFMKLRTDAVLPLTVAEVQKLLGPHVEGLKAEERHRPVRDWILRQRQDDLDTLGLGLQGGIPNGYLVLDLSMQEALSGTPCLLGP
The experiment in a line: FACS, HEK293T-hMSLN-R3 cells.
Turning to B7, the Maximum_MFI turned out to be 461 MFI.
Regarding B1, the EC50 was found to be 0.94 nM and the Maximum_MFI was 1700 MFI.
The corresponding values for B2 are 1.67 nM and 1560 MFI.
The corresponding values for B3 are 2.23 nM and 1440 MFI.

The target of the next assay is T3, monkey MSLN on HEK293T-monkey MSLN …. Briefly: FACS, HEK293T-monkey MSLN cells. This is another data set of the same source.
Consider B1, for which the EC50 stood at 4.55 nM and the Maximum_MFI was found to be 7780 MFI.
On to B2, for which the half-maximal effective concentration (EC50) was 8.05 nM and the Maximum_MFI amounted to 7460 MFI.
The matching figures for B3: 12.2 nM and 5980 MFI.

The target of another assay is T4, human MSLN-R3 on HEK293T-hMSLN-R3 …. The experiment in a line: FACS, HEK293T-hMSLN-R3 cells. This is another data set of the same source.
For B7, the Maximum_MFI is 461 MFI.
Consider B4, for which the EC50 was found to be 2.55 nM and the Maximum_MFI worked out at 2190 MFI.
In the case of B5, the half-maximal effective concentration (EC50) turned out to be 1.61 nM and the Maximum_MFI was 1650 MFI.
The corresponding values for B6 are 2.15 nM and 1960 MFI.

A word on the EC50: it is the concentration that produces a half-maximal response. By Kd is commonly meant a measure of binding affinity in units of concentration. Usually koff stands for the rate constant with which the complex falls apart. The kon is the rate constant with which the complex forms.

The values are drawn from patent US20250250357A1 (NANJING ZAIMING PHARMACEUTICAL, published 2025).
